Results: PMC10101095, “The Oxidative Stress-Induced Hypothetical Protein PG_0686 in Porphyromonas gingivalis W83 Is a Novel Diguanylate Cyclase” (Microbiology Spectrum, 2023)
Values joined by “and” are separate entries in the source; they are usually repeats but may differ in a detail not shown here. Identical values can stand only once.

How the values were obtained:
[1] = target: the molecule itself; experiment: SEC; Superdex 200 10/300 GL, 100 uL of 0.2 mg/mL rPG_0686, mobile phase 0.15 M ammonium bicarbonate, 0.1 mL/min; sizes calculated against Bio-Rad 1511901 protein standard
[2] = target: the molecule itself; experiment: native gel or EMSA; native-PAGE of purified rPG_0686 / SEC fractions, with immunoblot

B1: recombinant PG_0686 (rPG_0686) protein of Porphyromonas gingivalis W83 (enzyme, UniProt Q7MWD6 1-517, looked up)
chain: MQVIKTNETFDSLDKSKLERMLDIKEAHREGHLTLEEAKERMKKEVGSISPEEFAAAEQLFKERDQDECQNEDVRTMLQLFEGLINPIRPDLPFGHPIDAYLRENDKAKELLDQADALLERTFIPNPWIELMETLMGYKLHFARKQNQLYSTLEQKGFDRPSTTMWTYDDHIRDEMNKAMSLLREKDYDSFPAAYKEMAIVLRDLMEKEELILYPTSLKLISDKEFEEMKHGDREIGFFLIDMPELDAPAKQSKEAHGQSFMAELGALLAKHGMGTGGQDDKAILDVAEGKLTLEQINLLFRHLPVDISFVDENELVCFYTDTKHRVFPRSKGVIGREVRNCHPPKSVHIVEEIIDKFRRGEQDRAEFWINKPGVFIYIVYVAIRDADGRFRGVMEMMQDCTRIRSLEGSRTLLTWDEEQSPAQGSKESESDTAGEDGIRPDTKLKSLLQRYPQLMDDLPTISSKFTLLRSPMAKVILPVATIKMMSERADIPSDMLIGKLESLIASYNKPDRSEEK
notes: PG_0686, hypothetical protein / diguanylate cyclase of Porphyromonas gingivalis W83; 517 amino acids, 60 kDa; the ORF of the PG_0686 gene cloned in-frame into pEXP5-NT/TOPO; domains hemerythrin (96-215), PAS10 (297-402), DUF-1858 (421-497); Number of copies in the native oligomer differs by method (SEC: decamer and pentamer; native-PAGE: octamer and tetramer); The vector pEXP5-NT/TOPO probably …
stoichiometry N [1]: 10 and 5 | stoichiometry N [2]: 8 and 4
